Earlier results, collected in US20240209047A1, “GROWTH FACTOR CONJUGATES” (priority 2021, published 2024).

Test system: non-healing diabetic ulcers
Conditions: treated for 20 weeks or until complete wound closure; placebo 25%

B1: PDGF: topical gel containing recombinant human PDGF-BB (Regranex®) (protein, UniProt P01127 82-190, looked up)
Platelet-derived growth …: SLGSLTIAEPAMIAECKTRTEVFEISRRLIDRTNANFLVWPPCVEVQRCSGCCNNRNVQCRPTQVQLRPVQVRKIEIVRKKPIFKKATVTLEDHLACKCETVAAARPVT
modifications: Platelet-derived growth factor subunit B topical gel (becaplermin)
**Q.** With B1 as the molecule, how does the patients healed read?
**A.** 48%
